Laboratory results as given in PMC3536784, “Structural Characterization of Pandoraea pnomenusa B-356 Biphenyl Dioxygenase Reveals Features of Potent Polychlorinated Biphenyl-Degrading Enzymes” (PLoS ONE, 2013).

Tested on: c1ccc(-c2ccccc2)cc1
Assay: purified protein
Conditions: apparent, air-saturated 50 mM MES pH 6.0, NADH 123 µM, BphG B356 and BphF LB400 as electron transfer partners, Fe(II) added, well coupled
Text: O2 consumption, Clark-type oxygen electrode on BPDOB356 (biphenyl dioxygenase, oxygenase component BphAE)

Row | Substance | Km | kcat | kcat/Km
1 | BPDOB356 (biphenyl dioxygenase, oxygenase component BphAE) (Comamonas testosteroni; M231A) | 9.4 (1.9) µM | 2.1 s⁻¹ | 200000 M⁻¹ s⁻¹
2 | BPDOB356 (biphenyl dioxygenase, oxygenase component BphAE) (Comamonas testosteroni; M231T) | 11.1 (3.1) µM | 2.9 s⁻¹ | 300000 M⁻¹ s⁻¹
